Experimental data as given in US20260242839A1, “GLYCOSIDE PRODUCT BIOSYNTHESIS AND RECOVERY” (Manus Bio Inc., priority 2023, published 2026).

B1: SEQ ID NO: 46: CmaUGT1 (Cucurbita maxima) (protein, listed as Cucurbita maxima)
chain: MELSHTHHVLLFPFPAKGHIKPFFSLAQLLCNAGLRVTFLNTDHHHRRIHDLNRLAAQLPTLHFDSVSDGLPPDEPRNVFDGKLYESIRQVTSSLFRELLVSYNNGTSSGRPPITCVITDVMFRFPIDIAEELGIPVFTFSTFSARFLFLIFWIPKLLEDGQLRYPEQELHGVPGAEGLIRWKDLPGFWSVEDVADWDPMNFVNQTLATSRSSGLILNTFDELEAPFLTSLSKIYKKIYSLGPINSLLKNFQSQPQYNLWKEDHSCMAWLDSQPRKSVVFVSFGSVVKLTSRQLMEFWNGLVNSGMPFLLVLRSDVIEAGEEVVREIMERKAEGRWVIVSWAPQEEVLAHDAVGGFLTHSGWNSTLESLAAGVPMISWPQIGDQTSNSTWISKVWRIGLQLEDGFDSSTIETMVRSIMDQTMEKTVAELAERAKNRASKNGTSYRNFQTLIQDITNIIETHI
B2: SEQ ID NO: 80: SrUGT73E1, with optional His tag (Stevia rebaudiana) (protein, listed as Stevia rebaudiana)
chain: MAHHHHHHVGTGSNDDDDKSPDPNWASTSELVFIPSPGAGHLPPTVELAKLLLHRDQRLSVTIIVMNLWLGPKHNTEARPCVPSLRFVDIPCDESTMALISPNTFISAFVEHHKPRVRDIVRGIIESDSVRLAGFVLDMFCMPMSDVANEFGVPSYNYFTSGAATLGLMFHLQWKRDHEGYDATELKNSDTELSVPSYVNPVPAKVLPEVVLDKEGGSKMFLDLAERIRESKGIIVNSCQAIERHALEYLSSNNNGIPPVFPVGPILNLENKKDDAKTDEIMRWLNEQPESSVVFLCFGSMGSFNEKQVKEIAVAIERSGHRFLWSLRRPTPKEKIEFPKEYENLEEVLPEGFLKRTSSIGKVIGWAPQMAVLSHPSVGGFVSHCGWNSTLESMWCGVPMAAWPLYAEQTLNAFLLVVELGLAAEIRMDYRTDTKAGYDGGMEVTVEEIEDGIRKLMSDGEIRNKVKDVKEKSRAAVVEGGSSYASIGKFIEHVSNVTI
modifications: optional His tag
B3: galU: E. coli galU (UTP-glucose-1-phosphate uridylyltransferase), complemented on plasmid (protein, listed as Escherichia coli)
chain: MAAINTKVKKAVIPVAGLGTRMLPATKAIPKEMLPLVDKPLIQYVVNECIAAGITEIVLVTHSSKNSIENHFDTSFELEAMLEKRVKRQLLDEVQSICPPHVTIMQVRQGLAKGLGHAVLCAHPVVGDEPVAVILPDVILDEYESDLSQDNLAEMIRRFDETGHSQIMVEPVADVTAYGVVDCKGVELAPGESVPMVGVVEKPKADVAPSNLAIVGRYVLSADIWPLLAKTPPGAGDEIQLTDAIDMLIEKETVEAYHMKGKSHDCGNKLGYMQAFVEYGIRHNTLGTEFKAWLEEEMGIKK
B4: pgm: E. coli pgm (phosphoglucomutase), complemented on plasmid (protein, listed as Escherichia coli)
chain: MAIHNRAGQPAQQSDLINVAQLTAQYYVLKPEAGNAEHAVKFGTSGHRGSAARHSFNEPHILAIAQAIAEERAKNGITGPCYVGKDTHALSEPAFISVLEVLAANGVDVIVQENNGFTPTPAVSNAILVHNKKGGPLADGIVITPSHNPPEDGGIKYNPPNGGPADTNVTKVVEDRANALLADGLKGVKRISLDEAMASGHVKEQDLVQPFVEGLADIVDMAAIQKAGLTLGVDPLGGSGIEYWKRIGEYYNLNLTIVNDQVDQTFRFMHLDKDGAIRMDCSSECAMAGLLALRDKFDLAFANDPDYDRHGIVTPAGLMNPNHYLAVAINYLFQHRPQWGKDVAVGKTLVSSAMIDRVVNDLGRKLVEVPVGFKWFVDGLFDGSFGFGGEESAGASFLRFDGTPWSTDKDGIIMCLLAAEITAVTGKNPQEHYNELAKRFGAPSYNRLQAAATSAQKAALSKLSPEMVSASTLAGDPITARLTAAPGNGASIGGLKVMTDNGWFAARPSGTEDAYKIYCESFLGEEHRKQIEKEAVEIVSEVLKNA
B5: pgm-galU: pgm and galU (SEQ ID NOS: 92 and 93) complemented together on plasmid (protein, listed as Escherichia coli)
chain 1: B4 chain
chain 2: B3 chain
B6: ndk: E. coli ndk (nucleoside diphosphate kinase), complemented on plasmid (protein, listed as Escherichia coli)
chain: MAIERTFSIIKPNAVAKNVIGNIFARFEAAGFKIVGTKMLHLTVEQARGFYAEHDGKPFFDGLVEFMTSGPIVVSVLEGENAVQRHRDLLGATNPANALAGTLRADYADSLTENGTHGSDSVESAAREIAYFFGEGEVCPRTR
B7: ycjU: E. coli ycjU (β-phosphoglucomutase), complemented on plasmid (protein, listed as Escherichia coli)
chain: MKLQGVIFDLDGVITDTAHLHFQAWQQIAAEIGISIDAQFNESLKGISRDESLRRILQHGGKEGDFNSQERAQLAYRKNLLYVHSLRELTVNAVLPGIRSLLADLRAQQISVGLASVSLNAPTILAALELREFFTFCADASQLKNSKPDPEIFLAACAGLGVPPQACIGIEDAQAGIDAINASGMRSVGIGAGLTGAQLLLPSTESLTWPRLSAFWQNV
B8: ugpA: Bifidobacterium bifidum ugpA, complemented on plasmid (protein, listed as Bifidobacterium bifidum)
chain: MAFAEDLKRTEKMTVDDVFEQSAQKMREQGMSEIAISQFRHAYHVWASEKESAWIREDTVEPLHGVRSFHDVYKTIDHDKAVHAFAKTAFLKLNGGLGTSMGLQCAKSLLPVRRHKARQMRFLDIILGQVLTARTRLNVPLPVTFMNSFRTSDDTMKALRHQRKFKQTDIPLEIIQHQEPKIDAATGAPASWPANPDLEWCPPGHGDLFSTLRESGLLDTLLEHGFEYLFISNSDNLGARPSRTLAQYFEDTGAPFMVEVANRTYADRKGGHIVRDTATGRLILREMSQVHPDDKDAAQDIAKHPYFNTNNIWVRIDVLRDMLAEHDGVLPLPVIINNKTVDPIDPQSPAVVQLETAMGAAIGLFEGAICVQVDRMRFLPVKTTNDLFIMRSDRFHLTDSYEMEDGNYIFPNVDLDPRYYKNIEDFNERFPYNVPSLAAANSVSIKGDWTFGRDVIMFADARLEDRNEPSYVPNGEYVGPMGIEPGDWV

tested on: mogrol; test: primary glycosylation at C3 and C24 hydroxyls of mogrol by cells expressing UGT enzymes; assay type: cell-based, E. coli; details: mogrol fed; 37° C., 48 hrs; LCMS/MS
Method: Specifically, mogrol was fed to cells expressing various UGT enzymes. Reactions were incubated at 37° C. for 48 hrs. Products were quantified by LCMS/MS with authentic standards of each compound.

Molecule	C3 O-Glucosylation	C24 O-Glucosylation
B1	Yes	No
B2	No	Yes

tested on: steviol glycoside; test: steviol glycoside bioconversion with overexpressed genes complemented on plasmid; assay type: cell-based, E. coli; details: chassis strain with UGT SEQ ID NOS: 14 and 24; stevia leaf extract and glucose fed; 37° C., 48 hr; FIG. 2
Method: Other bacterial genes were overexpressed, and bioconversion tested as compared to the chassis strain expressing UGT enzymes of SEQ ID NOS: 14 and 24. […] Fold improvement is with respect to total steviol glycoside conversion. Stevia leaf extract and glucose were fed to the bioconversion strains. Bioconversion took place at 37° C. for 48 hr. Data were quantified by reverse phase LC DAD to quantify conversion of steviol glycosides.

Molecule	improvement of total steviol glycoside conversion by gene complementation
adk: E. coli adk (adenylate kinase), complemented on plasmid	improved overall glycosylation
B3	improved overall glycosylation
B4	improved overall glycosylation
B5	improved overall glycosylation
B6	improved overall glycosylation
B7	improved overall glycosylation
B8	improved overall glycosylation
